Measurements taken from the DeepSol protein solubility set.

Assay: soluble on expression in E. coli; label from the status in PepcDB or PDB records

Row | Sequence | soluble on expression in E. coli
1 | SRRLVHDLLPPEVCSLLNPAAIYANNEISLRDVEVYGFDYDYTLAQYADALHPEIFSTARDILIEHYKSLLMKIDAFHYVQLGTAYRGLQPVPDEEVIELYGGTQHIPLYQMSGFYGKGPSIKQFMDIFSLPEMALLSCVVDYFLGHSLEFDQAHLYKDVTDAIRDVHVKGLMYQWIEQDMEKYILRGDETFAVLSRLVAHGKQLFLITNSPFSFVDKGMRHMVGPDWRQLFDVVIVQADKPSFFTDRRKPFRKLDEKGSLQWDRITRLEKGKIYRQGNLFDFLRLTEWRGPRVLYFGDHLYSDLADLMLRHGWRTGAIIPELEREIRIINTEQYMHSLTWQQALTGLLERMQTYQDAESRQVLAAWMKERQELRCITKALFNAQFGSIFRTFHNPTYFSRRLVRFSDLYMASLSCLLNYRVDFTFYPRRTPLQHEAPLWMDQLCTGCMKTPFLGDMAHIR | not soluble
2 | MRIEQELKLGFKDVLFRPKRSTLKSRSQVNLTREFTFKHSGRQWSGVPVIAANMDSVGSFAMAKALAEHGVMTAVHKHYTVADWAEFVKSADKATLNNVMVSTGTSEADFQKTKDVMALSDELIFICIDIANGYSEHLVEYVQRVRAAFPDKVISAGNVVTGDMVEELILAGADIVKVGIGPGSVCTTRVKTGVGYPQLSAIIECADAAHGLGGRIIGDGGCTCPGDVAKAFGGGADFVMLGGMLAGHEEAGGELIVKDGETFMKFYGMSSKSAMDKHSGGVAGYRAAEGKTVLLPYRGSVHGTIQDILGGVRSTCTYVGAAELRELTKRTTFIRVQEQENNVYGRE | soluble
3 | MGSDKIHHHHHHSQTRYFADKKVSKSKNIVAADKVTDKEKETETWTSIPQRAVAYQELTTYEDSNLTKSVGKIPAKTQLDIPEIVGKSFKLKTGKYISTDKKAVISDLTISRESINTTIYTDKSVNVFYNPVTTYDNQIMTNLSGTHQLSADKMAKTNWGTYYEVSLDNGQKGWVSENDISLENPKIKQVQALLNQKYNDKKYSIYVKELDDKFTAGVNQEQKMYSASLSKIPILYWTQKRLNEGLASLDDKLLYTPAINTFYGSYKPEGTGNLPKTADNKYYSLQDVINRTAKLSDNVGSNMLAYYETQEFNPNYQKEINRIAGQEWNPKERNASAQMVGRMLEALYNEGGASFNALFDTSFDDVKIRAGVPKNISVAHKIGGADTDNHDAAIVFASKPYLLVIETDGATDDEIKAISQDVYGVMK | not soluble
4 | MGSDKIHHHHHHMNGFSQLEGLRGHPSVVRVIGHRGARGVMPENTLEGFAFTLAAGVRALEFDVVMTADGVPVVTHNHHLANAMTRDGQGHWLTGAERQVAEMTYAEIRALDVGGLDGRTVYGRRFPDQAFLTGIHVPRLGELLDLCAGYGDQAPYLLLELKSDPALMHDHAARAEMVAAVLADVRRYRMEPRTVMHSFDWALLGECRRQAPDLPTSYLSQLPENADDPGEDSAKPVGPDYDRMTESLPQAVASAGGQLWCPYFLDVTPELVAEAHDLGLIVLTWTVNEPEDIRRMATTGVDGIVTDYPGRTQRILIDMGLSWT | not soluble
5 | AFVVTDNCIKCKYTDCVEVCPVDCFYEGPNFLVIHPDECIDDALCEPECPAQAIFSEDEVPEDMQEFIQLNAELAEVWPNITEKKDPLPDAEDWDGVKGKLQHLER | soluble
6 | MAGDPMDTISRISSYVAGKVVKYPGLKYIAGVAISYAIHKFEESGLWRSVPIDKYIQLPRELEHHHHHH | not soluble
7 | MSLDDGTGLFTIGQLARRTGLSVRTIRYWSDEGALPPVTRSSGGYRLYDAGSVARLELIRTLRELGLGLDDVREVLAGETTVAEVAATHVTALDAQIRALKVTRAVLSTVARRGSTAEEMTLMNKLARLSAAERRRILEEFADEMFRGLDTADPVIRERMRNTAVDLPDEPTPEQVDAWVELVELLQDPEFRAQMRAAAEFNAADRGHDSPAGASLWFVRRLVQLAADARQRGEGHHHHHH | not soluble
8 | MSLGVNFQPVAFTGRIDQSQREKKRITIPDVMKLVEEQTGGEIPCNAWYPVSFVVPISRFLSAMRNIPIPELTAHPHCGAGTYVFYEEGHFIPITNFFDVESFIELLKEITPEINGRVSRVLSLAKVIKQVPKFIDEKKGPKSVNTTRMILDLLKKGDMENTSRFHRNTLFLGTMHFQDLYNIDLERVKKCGVHYATPDGRIIPFCTYNEGHHHHHH | not soluble
